Measurements: PMC5109244, “A pH‐ and ionic strength‐dependent conformational change in the neck region regulates DNGR‐1 function in dendritic cells” (The EMBO Journal, 2016)

Molecular target: the molecule itself
Experiment: non-reducing SDS-PAGE and Western blot; supernatants of 293F cells with FLAG-tagged ECD proteins, Laemmli buffer without reducing agent, HRP-conjugated anti-FLAG detection

B1: human DNGR-1 ECD (extracellular domain of human DNGR-1) (domain or fragment)
chain: not shown
modifications: glycosylated (mobility augmented by PNGase F)
notes: human DNGR-1 (CLEC9A), single isoform, extracellular domain K57–V241; Disulfide-bonded homodimer; also called human ECD; human isoform; source: 293F cells, transient transfection
stoichiometry N: 2
